From patent US20210356467

What was measured:
[1] = target: CK1a (P48729) expressed in-frame upstream to the N-CAT fragment (UniProt P48729)
[2] = target: IKZF1 (Q13422) expressed in-frame upstream to the N-CAT fragment (UniProt Q13422)
[3] = target: GSPT1 (P15170) expressed in-frame upstream to the N-CAT fragment (UniProt P15170)
GSPT1 (P15170) expressed in-frame upstream to the N-CAT fragment, sequence (P15170 other isoform, or with tags, fused parts or gaps): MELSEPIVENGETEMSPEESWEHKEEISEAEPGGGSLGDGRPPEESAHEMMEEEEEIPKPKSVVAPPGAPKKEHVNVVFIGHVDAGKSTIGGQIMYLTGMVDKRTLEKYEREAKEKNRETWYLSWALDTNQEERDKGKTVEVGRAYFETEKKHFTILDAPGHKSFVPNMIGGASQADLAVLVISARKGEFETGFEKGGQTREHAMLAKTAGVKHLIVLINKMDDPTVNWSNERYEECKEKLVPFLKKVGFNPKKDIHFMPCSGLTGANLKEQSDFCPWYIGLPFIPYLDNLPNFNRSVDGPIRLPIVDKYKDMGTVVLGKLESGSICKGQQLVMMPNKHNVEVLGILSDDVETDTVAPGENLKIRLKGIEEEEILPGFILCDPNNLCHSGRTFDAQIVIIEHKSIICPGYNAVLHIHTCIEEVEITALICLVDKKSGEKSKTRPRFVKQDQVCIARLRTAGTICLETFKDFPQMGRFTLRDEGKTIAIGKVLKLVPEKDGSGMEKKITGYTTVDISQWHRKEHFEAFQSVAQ

Cereblon-E2 (Ubc4) fusion, sequence (chain, as listed by the source): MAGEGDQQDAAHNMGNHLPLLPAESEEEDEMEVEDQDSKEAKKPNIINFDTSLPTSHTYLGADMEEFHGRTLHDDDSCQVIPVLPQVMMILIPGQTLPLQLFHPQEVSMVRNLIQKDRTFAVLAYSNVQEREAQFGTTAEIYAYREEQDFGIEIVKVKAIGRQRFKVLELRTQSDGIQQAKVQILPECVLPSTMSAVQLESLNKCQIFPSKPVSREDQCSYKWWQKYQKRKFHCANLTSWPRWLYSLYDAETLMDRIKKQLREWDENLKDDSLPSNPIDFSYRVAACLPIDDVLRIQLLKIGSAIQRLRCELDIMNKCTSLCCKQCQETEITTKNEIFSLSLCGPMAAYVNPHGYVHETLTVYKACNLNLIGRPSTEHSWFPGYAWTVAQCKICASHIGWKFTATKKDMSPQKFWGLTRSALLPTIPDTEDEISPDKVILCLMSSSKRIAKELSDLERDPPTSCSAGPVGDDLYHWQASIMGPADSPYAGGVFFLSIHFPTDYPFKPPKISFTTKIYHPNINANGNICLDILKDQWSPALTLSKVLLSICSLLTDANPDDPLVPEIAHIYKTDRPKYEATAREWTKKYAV
IKZF1 (Q13422) expressed in-frame upstream to the N-CAT fragment, sequence (Q13422 other isoform, or with tags, fused parts or gaps): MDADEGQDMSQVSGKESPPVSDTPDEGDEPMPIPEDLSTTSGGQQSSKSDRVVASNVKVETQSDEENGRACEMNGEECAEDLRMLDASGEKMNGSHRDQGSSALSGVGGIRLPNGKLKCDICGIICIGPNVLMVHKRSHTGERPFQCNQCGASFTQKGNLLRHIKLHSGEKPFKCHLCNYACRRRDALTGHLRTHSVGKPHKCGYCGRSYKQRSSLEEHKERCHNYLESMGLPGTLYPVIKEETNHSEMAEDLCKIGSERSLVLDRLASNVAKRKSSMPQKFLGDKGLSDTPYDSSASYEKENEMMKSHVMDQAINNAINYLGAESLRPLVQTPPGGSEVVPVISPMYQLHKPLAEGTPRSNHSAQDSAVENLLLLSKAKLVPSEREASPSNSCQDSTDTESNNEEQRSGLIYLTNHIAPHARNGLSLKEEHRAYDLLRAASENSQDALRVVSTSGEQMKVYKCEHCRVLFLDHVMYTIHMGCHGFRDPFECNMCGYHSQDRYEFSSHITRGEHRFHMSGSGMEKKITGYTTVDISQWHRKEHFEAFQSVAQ
CK1a (P48729) expressed in-frame upstream to the N-CAT fragment, sequence (P48729 other isoform, or with tags, fused parts or gaps): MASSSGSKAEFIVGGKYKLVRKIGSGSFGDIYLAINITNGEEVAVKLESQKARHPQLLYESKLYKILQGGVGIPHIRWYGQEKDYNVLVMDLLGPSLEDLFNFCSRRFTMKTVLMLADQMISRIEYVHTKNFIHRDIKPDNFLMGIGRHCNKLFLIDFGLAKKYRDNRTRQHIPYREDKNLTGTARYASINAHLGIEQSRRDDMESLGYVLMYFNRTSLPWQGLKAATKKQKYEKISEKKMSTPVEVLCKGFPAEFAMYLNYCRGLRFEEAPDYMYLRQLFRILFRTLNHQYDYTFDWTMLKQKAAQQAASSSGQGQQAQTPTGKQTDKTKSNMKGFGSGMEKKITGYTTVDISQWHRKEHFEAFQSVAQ

Substance: Cereblon-E2 (Ubc4) fusion
- growth of E. coli (OD600) under chloramphenicol, split-CAT ubiquitylation selection, with Lenalidomide (LLD) [1]: Thalidomide and Lenalidomide (TLD/LLD) significantly promoted the growth of E. coli that express CK1a
- growth of E. coli (OD600) under chloramphenicol, split-CAT ubiquitylation selection, with Thalidomide (TLD) [1]: Thalidomide and Lenalidomide (TLD/LLD) significantly promoted the growth of E. coli that express CK1a
- dose response of E. coli growth (OD600) to TLD and LLD, split-CAT selection [2]: the selection system maintains this well-known optimum characteristic response to TLD and LLD
- growth of E. coli (OD600) under chloramphenicol, split-CAT ubiquitylation selection, with Lenalidomide (LLD) [2]: Thalidomide and Lenalidomide (TLD/LLD) significantly promoted the growth of E. coli that express IKZF1
- growth of E. coli (OD600) under chloramphenicol, split-CAT ubiquitylation selection, with Thalidomide (TLD) [2]: Thalidomide and Lenalidomide (TLD/LLD) significantly promoted the growth of E. coli that express IKZF1
- growth of E. coli (OD600) under chloramphenicol, split-CAT ubiquitylation selection, with CC-885 [3]: CC-885 significantly promoted the growth of E. coli that express GSPT1
